Paper PMC7982547 (The Journal of Biological Chemistry, 2004)

Legend:
[1] = biological target: the molecule itself; test: crystal structure
[2] = biological target: the molecule itself; test: crystal structure; remark: listed apart in the source

Row | Protein | stoichiometry N [1] | binding result [2]
1 | HR1 (heptad repeat 1) region of the MHV A59 spike protein, residues 968-1027 (domain or fragment) ENQKMIASAFNNALGAIQDGFDATNSALGKIQSVVNANAEALNNLLNQLSNRFGAISASL | 3 | –
2 | ENQKMIASAFNNALGAIQDGFDATNSALGKIQSVVNANAEALNNLLNQLS (domain or fragment) [shortened HR1 region of the MHV A59 spike protein, residues 968-1017] | – | binds
3 | nMHV 2-Helix (new construct of the MHV fusion core: shortened HR1, 22-residue linker, HR2) (domain or fragment) ENQKMIASAFNNALGAIQDGFDATNSALGKIQSVVNANAEALNNLLNQLSLVPRGSGGSGGSGGLEVLFQGPDLSLDFEKLNVTLLDLTYEMNRIQDAIKKLNESYINLKE | – | binds
